In this test the target is PI3K (protein used in biolayer interferometry) (UniProt P26450 1-724). The experiment in a line: BLI; biolayer interferometry; format and conditions not told in the main text (Figure S4). (In general: Biolayer interferometry detects binding as a change in optical thickness at a sensor tip.)

As usually defined, the Kd is the equilibrium constant for the complex coming apart. The low end stands for higher affinity, the high end for lower affinity.

PI3K (protein used in biolayer interferometry), sequence (P26450 2-724): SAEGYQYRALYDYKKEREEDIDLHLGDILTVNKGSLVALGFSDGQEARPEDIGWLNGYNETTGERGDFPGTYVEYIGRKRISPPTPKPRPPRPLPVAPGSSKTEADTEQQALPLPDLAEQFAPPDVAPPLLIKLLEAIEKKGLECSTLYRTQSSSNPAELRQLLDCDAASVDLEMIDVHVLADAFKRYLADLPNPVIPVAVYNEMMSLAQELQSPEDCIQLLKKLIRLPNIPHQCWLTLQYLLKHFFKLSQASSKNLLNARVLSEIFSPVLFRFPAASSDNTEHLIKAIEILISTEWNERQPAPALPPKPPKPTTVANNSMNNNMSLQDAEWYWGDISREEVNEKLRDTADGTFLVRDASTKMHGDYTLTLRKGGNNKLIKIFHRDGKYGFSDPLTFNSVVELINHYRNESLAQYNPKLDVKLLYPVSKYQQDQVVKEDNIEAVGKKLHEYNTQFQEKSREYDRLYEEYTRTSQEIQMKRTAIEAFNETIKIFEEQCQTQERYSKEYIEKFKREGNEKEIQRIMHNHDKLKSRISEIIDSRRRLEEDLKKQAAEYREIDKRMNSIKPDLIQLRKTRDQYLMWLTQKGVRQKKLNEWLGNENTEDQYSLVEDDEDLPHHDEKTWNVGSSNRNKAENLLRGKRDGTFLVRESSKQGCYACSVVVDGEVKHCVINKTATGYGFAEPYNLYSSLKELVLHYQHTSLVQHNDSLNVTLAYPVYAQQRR

B1: Hmga2 (protein used in biolayer interferometry) (natural protein, UniProt P52927 1-108, looked up)
chain: MSARGEGAGQPSTSAQGQPAAPVPQKRGRGRPRKQQQEPTCEPSPKRPRGRPKGSKNKSPSKAAQKKAETIGEKRPRGRPRKWPQQVVQKKPAQETEETSSQESAEED
notes: Hmga2 as used in the biolayer interferometry assay; The main text has no methods for the BLI experiment
In the case of B1, the Kd came to 12 nM.

The values above are taken from publication PMC12631878, “Single‐Cell Transcriptome Analysis Reveals That Hmga2 Regulates Neuroinflammation and Retinal Function by Modulating Müller Cell Autophagy Through PI3K/AKT Signaling Following MCAO‐Induced Retinal Ischemia” (Advanced Science, 2025).
